What was measured:
[1] = molecular target: T1, recombinant human CAPRIN-1 protein having the amino acid sequence represented by SEQ ID NO: 2 (prepared in … (human, UniProt Q14444 1-709, limits assumed)); experiment: SPR (BIACORE2000), CAPRIN-1 recombinant protein amine-coupled to CM5 chip, antibody as analyte
T1 construct: Expressed in E. coli from pET30a; the His-tag was cleaved off with enterokinase; also called CAPRIN-1 recombinant protein; CAPRIN-1 molecule
T1 sequence: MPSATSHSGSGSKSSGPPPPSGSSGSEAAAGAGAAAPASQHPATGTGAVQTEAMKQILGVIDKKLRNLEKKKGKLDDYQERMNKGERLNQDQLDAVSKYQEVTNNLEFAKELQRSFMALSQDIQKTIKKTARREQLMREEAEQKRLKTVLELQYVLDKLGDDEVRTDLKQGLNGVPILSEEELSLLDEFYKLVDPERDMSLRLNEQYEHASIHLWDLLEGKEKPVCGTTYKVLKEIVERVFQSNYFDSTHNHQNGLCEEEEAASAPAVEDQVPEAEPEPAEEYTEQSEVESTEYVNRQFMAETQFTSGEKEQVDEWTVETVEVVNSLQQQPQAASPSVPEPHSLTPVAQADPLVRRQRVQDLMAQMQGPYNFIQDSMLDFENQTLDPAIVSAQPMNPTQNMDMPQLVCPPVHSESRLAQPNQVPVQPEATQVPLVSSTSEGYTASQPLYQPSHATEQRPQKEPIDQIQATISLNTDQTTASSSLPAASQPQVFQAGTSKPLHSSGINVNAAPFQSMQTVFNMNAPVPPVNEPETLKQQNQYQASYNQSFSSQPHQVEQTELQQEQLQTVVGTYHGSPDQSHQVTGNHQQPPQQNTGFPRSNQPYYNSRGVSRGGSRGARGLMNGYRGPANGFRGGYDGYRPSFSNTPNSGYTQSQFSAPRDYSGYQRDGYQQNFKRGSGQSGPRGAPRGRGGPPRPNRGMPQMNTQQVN
Procedure: As a reference control (reference cell), a sensor chip with 20 μg/ml bovine serum-derived albumin immobilized thereto by the same method was used. A sensor chip to which the CAPRIN-1 molecule had been immobilized was set in BIACORE2000, 40 μL, each of the antibody solution (analyte) prepared to have a concentration (100, 80, 40, 20, 10, 5, or 2.5 μg/mL) was applied at a flow rate of 20 μL/minute, the surface plasmon resonance angle at the time of binding of an antibody to the CAPRIN-1 molecule immobilized on the sensor chip was measured, so that each RU value (Resonance Unit) was obtained. Next, a running buffer HBS-EP solution (GE) was applied and then the resonance angle upon dissociation of the antibody from the CAPRIN-1 molecule was measured, and then the RU value at this time was obtained. An antibody solution was similarly applied to a reference control (reference cell) sensor chip, the resonance angle at the time of immobilization reaction and the resonance angle at the time of dissociation reaction were measured, and thus the background RU values were obtained. […] Association rate constant (kₒₙ) and dissociation rate constant (koff) were found from the thus obtained RU value at each antibody concentration using affinity analysis software BIA evaluation, so that affinity constant Ka(=kₒₙ/koff) was calculated.

[2] = molecular target: T2, human CAPRIN-1 protein on the cell surfaces of human cancer cell lines and in human cancer tissues (human, UniProt Q14444 2-709); experiment: flow cytometry on the listed human cancer cell lines, culture supernatant, against negative control
T2 construct: whole, on cells; Endogenous protein of human cancer cell lines (flow cytometry, ADCC, CDC) and of human cancer tissue sections (immunohistochemistry); also called CAPRIN-1 protein expressed on the cell membrane surfaces
T2 sequence (looked up): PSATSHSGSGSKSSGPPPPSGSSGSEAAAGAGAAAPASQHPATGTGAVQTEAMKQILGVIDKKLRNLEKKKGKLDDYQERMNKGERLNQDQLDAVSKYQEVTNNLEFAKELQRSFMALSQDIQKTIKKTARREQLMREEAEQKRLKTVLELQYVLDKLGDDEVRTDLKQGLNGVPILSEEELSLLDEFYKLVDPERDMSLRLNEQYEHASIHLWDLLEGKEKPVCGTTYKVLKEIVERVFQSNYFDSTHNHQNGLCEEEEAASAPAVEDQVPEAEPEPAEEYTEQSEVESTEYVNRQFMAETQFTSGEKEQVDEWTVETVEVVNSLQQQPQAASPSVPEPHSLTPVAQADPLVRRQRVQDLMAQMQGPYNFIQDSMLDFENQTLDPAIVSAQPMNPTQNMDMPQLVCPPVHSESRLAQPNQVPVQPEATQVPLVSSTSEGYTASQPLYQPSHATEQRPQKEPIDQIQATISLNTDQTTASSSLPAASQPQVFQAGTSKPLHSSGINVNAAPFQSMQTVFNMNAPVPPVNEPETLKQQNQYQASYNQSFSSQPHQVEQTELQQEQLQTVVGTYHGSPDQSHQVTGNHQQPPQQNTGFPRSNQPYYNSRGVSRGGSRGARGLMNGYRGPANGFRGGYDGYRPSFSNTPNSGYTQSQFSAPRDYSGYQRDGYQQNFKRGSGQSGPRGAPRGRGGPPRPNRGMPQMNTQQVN
Procedure: 10⁶ cells of each cell line were centrifuged in a 1.5 ml microcentrifuge tube. Each cell culture supernatant (100 μl) of CHO-K1 cells containing #1 obtained in (2) above and hybridomas producing #2, #3, #4, #5, and #6 obtained in Example 3 was added and then left to stand on ice for 1 hour. After washing with PBS, a FITC-labeled goat anti-human IgG (H+L) antibody (SouthernBiotech) and a FITC-labeled anti-mouse IgG (H+L) antibody (Invitrogen) diluted 500-fold with PBS containing 0.1% FBS were added and then left to stand on ice for 1 hour. After washing with PBS, fluorescence intensity was measured using a FACS Calibur (Becton, Dickinson). Meanwhile, procedures similar to the above were performed using a culture supernatant of CHO-K1 cells into which no antibody gene had been introduced and medium for culturing hybridomas, so that a negative control sample was prepared. […] Specifically, when the antibody #1 was used, fluorescence intensity was enhanced to 4700% in the case of SK-BR-3 and 5500% in the case of MDA-MB-231V. Also, when the antibodies #2, #3, #4, #5, and #6 were used, fluorescence intensity was enhanced. […] The percentage of enhancement in the above fluorescence intensity was expressed as percentage of increase in mean fluorescence intensity (MFI level) in each type of cell and calculated by the following formula.

Ka [1]: 4.6e+07 M⁻¹
percentage of increase in mean fluorescence intensity [2]: ≥ 20%
B1: human-chicken chimeric antibody #1 having the chicken monoclonal antibody #1 variable region (antibody, V domains shown)
VH: AVTLDESGGGLQMSRGGLSLVCKASGFDFSSYQMNWIRQAPGKGLEFVAAINKFGNSTGHGAAVKGRVTISRDNGQSTVRLQLNNLRAEDTAIYFCTKHAYGYCGSGTWCAAGEIDAWGHGTEVIVSS
VL: QAASTQPSSVSANPGETVEITCSGGGSYSYGWFQQKSPGSAPVTVIYYNNKRPSDIPSRFSGSKSGSTGTLTITGVQADDEAVYYCGSGDSTDTAVFGAGTTLTVLG
notes: also called anti-CAPRIN-1 antibody #1; human-chicken chimeric monoclonal antibody (#1); not shown: human IgG1 H-chain constant region; human IgG1 L-chain constant region
